Where a SMILES comes first, the peptide text is derived from it. [ ]: non-standard residue; d: D form. The star is where a group is joined. X1 = O=C(CCCCCCCn1cnc2c(Br)c(Br)c(Br)c(Br)c21)*

Common to all, as to test: Kinase panel residual activity
Common to all, as to format: biochemical
Common to all, as to conditions: compound at 1 micromolar

For series [1], the target named is T1, NUAK1 (Homo sapiens, UniProt O60285).
T1 sequence (O60285 1-661): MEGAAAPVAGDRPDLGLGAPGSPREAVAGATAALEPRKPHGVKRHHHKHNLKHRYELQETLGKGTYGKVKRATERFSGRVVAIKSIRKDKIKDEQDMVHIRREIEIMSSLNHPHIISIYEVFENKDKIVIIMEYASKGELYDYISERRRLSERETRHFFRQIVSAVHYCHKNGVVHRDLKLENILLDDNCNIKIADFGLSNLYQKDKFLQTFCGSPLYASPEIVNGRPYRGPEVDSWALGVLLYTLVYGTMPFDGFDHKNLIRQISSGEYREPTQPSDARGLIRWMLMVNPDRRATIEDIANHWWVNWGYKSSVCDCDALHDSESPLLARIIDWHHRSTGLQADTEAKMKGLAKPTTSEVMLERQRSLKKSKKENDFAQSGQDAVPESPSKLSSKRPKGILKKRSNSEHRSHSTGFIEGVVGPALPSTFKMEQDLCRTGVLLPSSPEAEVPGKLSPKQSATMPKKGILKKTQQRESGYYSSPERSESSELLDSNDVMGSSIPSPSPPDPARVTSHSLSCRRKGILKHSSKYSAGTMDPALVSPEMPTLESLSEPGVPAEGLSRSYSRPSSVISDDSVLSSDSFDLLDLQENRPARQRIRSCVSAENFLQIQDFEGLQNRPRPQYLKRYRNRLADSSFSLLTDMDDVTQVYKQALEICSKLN

The target in series [2] is S6K1 (Homo sapiens, UniProt P23443).
For series [3], the target named is PIM1 (Homo sapiens, UniProt P11309).
Series [4] concerns the target HIPK1 (Homo sapiens, UniProt Q86Z02).
For series [5], the target named is MARK3 (Homo sapiens, UniProt P27448).
The target in series [6] is PAK5 (Homo sapiens, UniProt Q9P286).
Series [7] deals with MARK1 (Homo sapiens, UniProt Q9P0L2).
Series [8] concerns the target T2, IKKe (Homo sapiens, UniProt Q14164).
T2 sequence (Q14164 1-716): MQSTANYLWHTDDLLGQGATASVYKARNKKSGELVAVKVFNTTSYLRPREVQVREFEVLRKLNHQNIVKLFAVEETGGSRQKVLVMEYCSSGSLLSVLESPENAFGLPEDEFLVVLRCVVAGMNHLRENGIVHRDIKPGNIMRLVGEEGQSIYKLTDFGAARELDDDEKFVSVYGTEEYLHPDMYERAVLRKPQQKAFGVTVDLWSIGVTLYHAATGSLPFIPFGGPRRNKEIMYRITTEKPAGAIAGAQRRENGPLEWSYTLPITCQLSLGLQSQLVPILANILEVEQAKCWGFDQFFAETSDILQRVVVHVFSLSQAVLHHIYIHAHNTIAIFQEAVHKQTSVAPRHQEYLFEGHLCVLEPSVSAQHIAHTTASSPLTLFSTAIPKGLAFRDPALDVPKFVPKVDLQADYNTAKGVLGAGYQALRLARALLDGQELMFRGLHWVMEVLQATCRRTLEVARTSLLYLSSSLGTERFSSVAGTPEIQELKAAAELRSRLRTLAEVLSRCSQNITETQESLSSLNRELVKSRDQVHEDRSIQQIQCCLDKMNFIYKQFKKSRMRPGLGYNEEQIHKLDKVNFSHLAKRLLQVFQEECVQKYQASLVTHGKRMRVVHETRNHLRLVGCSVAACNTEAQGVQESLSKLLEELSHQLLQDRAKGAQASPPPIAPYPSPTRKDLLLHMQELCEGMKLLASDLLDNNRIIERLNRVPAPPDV

Series [9] deals with JNK3 (Homo sapiens, UniProt P53779).
Series [10] deals with SmMLCK (Homo sapiens, UniProt Q15746).
Series [11] deals with MNK1 (Homo sapiens, UniProt Q9BUB5).
Series [12] addresses Aurora B (Homo sapiens, UniProt Q96GD4).
In series [13] the target is ERK1 (Homo sapiens, UniProt P27361).
In series [14] the target is OSR1 (Homo sapiens, UniProt O95747).
Chain of OSR1 (O95747 whole entry): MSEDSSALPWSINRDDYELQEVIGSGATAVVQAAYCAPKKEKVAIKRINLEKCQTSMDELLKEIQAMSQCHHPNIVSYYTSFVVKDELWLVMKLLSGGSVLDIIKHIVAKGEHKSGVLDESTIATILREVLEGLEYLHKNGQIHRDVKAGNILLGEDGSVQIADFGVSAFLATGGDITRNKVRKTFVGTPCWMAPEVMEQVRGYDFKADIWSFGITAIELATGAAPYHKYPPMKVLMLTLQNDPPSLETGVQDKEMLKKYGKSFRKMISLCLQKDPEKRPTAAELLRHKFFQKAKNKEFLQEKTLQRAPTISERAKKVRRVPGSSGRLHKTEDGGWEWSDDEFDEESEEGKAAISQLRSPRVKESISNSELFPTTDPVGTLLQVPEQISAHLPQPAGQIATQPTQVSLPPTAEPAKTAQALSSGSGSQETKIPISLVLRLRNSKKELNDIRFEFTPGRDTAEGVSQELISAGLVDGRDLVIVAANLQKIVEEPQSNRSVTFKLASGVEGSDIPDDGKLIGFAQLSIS

Chain of MARK1 (Q9P0L2 whole entry, species assumed): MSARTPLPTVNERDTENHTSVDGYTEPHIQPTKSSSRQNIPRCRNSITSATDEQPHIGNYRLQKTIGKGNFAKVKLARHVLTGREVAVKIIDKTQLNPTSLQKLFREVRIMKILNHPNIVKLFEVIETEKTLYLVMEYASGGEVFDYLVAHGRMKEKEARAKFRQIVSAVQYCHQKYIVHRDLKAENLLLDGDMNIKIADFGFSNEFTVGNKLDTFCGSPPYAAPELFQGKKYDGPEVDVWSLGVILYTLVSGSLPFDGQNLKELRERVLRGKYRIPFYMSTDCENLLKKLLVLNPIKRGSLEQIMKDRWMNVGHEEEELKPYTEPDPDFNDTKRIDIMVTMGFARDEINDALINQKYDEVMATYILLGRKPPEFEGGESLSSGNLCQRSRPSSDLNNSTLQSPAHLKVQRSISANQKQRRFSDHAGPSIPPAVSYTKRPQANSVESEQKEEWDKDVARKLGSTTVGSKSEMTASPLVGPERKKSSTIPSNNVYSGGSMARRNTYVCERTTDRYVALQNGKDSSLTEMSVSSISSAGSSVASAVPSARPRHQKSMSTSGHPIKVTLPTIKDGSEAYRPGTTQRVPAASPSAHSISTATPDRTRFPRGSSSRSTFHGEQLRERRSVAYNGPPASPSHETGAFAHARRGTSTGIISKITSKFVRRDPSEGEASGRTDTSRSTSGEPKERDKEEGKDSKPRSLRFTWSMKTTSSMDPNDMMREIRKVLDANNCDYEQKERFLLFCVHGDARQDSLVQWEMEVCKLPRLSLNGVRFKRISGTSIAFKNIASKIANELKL
Chain of Aurora B (Q96GD4 whole entry): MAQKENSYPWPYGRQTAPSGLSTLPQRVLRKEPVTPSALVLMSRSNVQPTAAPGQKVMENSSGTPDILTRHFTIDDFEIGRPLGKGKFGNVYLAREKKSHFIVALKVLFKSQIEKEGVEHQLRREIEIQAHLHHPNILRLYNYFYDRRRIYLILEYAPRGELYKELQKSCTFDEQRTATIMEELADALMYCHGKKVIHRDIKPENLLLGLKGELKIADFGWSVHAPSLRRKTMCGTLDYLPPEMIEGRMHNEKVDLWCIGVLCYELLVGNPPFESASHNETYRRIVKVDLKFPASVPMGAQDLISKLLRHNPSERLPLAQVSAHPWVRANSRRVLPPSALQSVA
Chain of PAK5 (Q9P286 whole entry): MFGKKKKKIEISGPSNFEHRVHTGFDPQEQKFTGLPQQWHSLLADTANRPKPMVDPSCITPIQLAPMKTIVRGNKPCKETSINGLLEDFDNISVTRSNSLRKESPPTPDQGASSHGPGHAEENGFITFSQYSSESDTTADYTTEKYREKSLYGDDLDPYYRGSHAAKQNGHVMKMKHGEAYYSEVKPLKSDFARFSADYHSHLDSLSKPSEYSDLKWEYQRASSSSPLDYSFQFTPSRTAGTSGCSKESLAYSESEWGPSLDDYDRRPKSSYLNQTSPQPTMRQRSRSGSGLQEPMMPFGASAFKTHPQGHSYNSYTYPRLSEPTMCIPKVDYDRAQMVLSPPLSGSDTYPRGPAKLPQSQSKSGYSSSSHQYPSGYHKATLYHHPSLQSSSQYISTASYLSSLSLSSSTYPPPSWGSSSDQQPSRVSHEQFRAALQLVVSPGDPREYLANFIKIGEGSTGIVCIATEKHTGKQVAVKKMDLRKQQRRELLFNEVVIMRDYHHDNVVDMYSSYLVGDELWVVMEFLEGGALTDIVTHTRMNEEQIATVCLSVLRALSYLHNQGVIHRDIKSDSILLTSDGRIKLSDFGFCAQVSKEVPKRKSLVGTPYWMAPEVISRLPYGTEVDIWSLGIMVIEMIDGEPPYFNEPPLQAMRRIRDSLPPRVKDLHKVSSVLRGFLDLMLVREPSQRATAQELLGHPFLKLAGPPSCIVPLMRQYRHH
Chain of PIM1 (P11309 whole entry, species assumed): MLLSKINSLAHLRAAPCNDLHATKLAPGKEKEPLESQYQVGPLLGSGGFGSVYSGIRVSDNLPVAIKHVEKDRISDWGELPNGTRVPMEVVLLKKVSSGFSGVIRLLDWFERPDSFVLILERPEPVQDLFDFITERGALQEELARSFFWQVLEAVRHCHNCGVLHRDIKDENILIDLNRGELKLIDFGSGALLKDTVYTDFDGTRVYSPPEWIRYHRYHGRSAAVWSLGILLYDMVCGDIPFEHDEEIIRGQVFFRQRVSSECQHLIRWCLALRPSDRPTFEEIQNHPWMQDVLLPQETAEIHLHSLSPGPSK
Chain of JNK3 (P53779 whole entry, species assumed): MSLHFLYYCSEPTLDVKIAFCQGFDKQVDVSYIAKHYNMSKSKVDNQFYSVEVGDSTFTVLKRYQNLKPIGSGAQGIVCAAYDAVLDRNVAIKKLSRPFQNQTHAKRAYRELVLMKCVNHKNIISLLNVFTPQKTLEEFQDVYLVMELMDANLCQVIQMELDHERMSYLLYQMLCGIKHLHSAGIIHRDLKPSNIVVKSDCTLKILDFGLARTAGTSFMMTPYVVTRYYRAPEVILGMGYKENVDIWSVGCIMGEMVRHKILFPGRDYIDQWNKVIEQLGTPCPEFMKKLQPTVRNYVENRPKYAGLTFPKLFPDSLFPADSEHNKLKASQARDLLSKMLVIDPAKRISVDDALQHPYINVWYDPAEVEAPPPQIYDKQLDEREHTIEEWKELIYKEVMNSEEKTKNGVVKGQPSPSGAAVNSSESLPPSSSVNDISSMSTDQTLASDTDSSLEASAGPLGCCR
Chain of MNK1 (Q9BUB5 whole entry, species assumed): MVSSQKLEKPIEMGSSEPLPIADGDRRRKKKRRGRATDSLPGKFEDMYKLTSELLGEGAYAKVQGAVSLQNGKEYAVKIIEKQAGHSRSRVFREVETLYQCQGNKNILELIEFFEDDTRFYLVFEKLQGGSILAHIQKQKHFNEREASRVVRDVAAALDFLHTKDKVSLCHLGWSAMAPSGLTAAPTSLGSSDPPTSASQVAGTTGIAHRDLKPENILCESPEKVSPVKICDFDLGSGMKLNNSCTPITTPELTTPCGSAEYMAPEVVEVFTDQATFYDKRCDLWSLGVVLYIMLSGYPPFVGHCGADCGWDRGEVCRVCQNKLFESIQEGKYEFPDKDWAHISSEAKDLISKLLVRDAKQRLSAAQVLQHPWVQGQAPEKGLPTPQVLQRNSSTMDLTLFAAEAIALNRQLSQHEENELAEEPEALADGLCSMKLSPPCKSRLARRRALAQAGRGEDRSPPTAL
Chain of MARK3 (P27448 whole entry, species assumed): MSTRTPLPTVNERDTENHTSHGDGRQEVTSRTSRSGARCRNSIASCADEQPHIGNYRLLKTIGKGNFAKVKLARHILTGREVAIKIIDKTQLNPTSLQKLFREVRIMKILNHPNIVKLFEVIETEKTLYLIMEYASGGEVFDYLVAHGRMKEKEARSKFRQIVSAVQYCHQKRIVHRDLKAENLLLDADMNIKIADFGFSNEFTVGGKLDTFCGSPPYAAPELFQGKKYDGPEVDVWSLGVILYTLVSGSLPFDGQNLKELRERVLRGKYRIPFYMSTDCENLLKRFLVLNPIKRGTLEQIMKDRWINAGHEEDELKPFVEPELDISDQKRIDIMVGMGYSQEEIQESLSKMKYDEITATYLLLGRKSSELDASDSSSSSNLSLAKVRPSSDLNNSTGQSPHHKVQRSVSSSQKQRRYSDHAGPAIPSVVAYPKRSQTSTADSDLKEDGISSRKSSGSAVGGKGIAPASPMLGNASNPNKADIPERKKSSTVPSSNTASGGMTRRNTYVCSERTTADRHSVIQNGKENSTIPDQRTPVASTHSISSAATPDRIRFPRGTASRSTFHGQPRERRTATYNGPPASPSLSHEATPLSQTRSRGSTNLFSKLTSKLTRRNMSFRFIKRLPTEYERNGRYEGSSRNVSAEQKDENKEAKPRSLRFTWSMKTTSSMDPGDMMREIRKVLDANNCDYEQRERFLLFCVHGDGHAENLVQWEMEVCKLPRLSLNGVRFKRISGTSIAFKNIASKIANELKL
Chain of ERK1 (P27361 whole entry, species assumed): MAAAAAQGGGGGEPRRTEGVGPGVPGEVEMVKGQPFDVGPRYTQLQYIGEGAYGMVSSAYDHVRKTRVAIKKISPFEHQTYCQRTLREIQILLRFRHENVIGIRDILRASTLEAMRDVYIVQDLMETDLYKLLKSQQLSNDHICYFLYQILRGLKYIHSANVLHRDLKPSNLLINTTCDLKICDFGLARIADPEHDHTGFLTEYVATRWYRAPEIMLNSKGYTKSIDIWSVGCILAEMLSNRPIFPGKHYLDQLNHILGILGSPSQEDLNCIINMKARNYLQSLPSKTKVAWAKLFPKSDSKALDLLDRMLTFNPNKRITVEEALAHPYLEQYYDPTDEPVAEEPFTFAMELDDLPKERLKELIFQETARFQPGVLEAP

For the compound `NCCCC[C@H](NC(=O)[C@H](CC(=O)O)NC(=O)[C@H](CC(=O)O)NC(=O)[C@H](CC(=O)O)NC(=O)[C@H](CC(=O)O)NC(=O)[C@H](CC(=O)O)NC(=O)[C@@H](CC(=O)O)NC(=O)CCCCCCCn1cnc2c(Br)c(Br)c(Br)c(Br)c21)C(=O)O` [TBBI-OcA-(D-Asp)-(L-Asp)5-(L-Lys)-OH] (X1-[dD]DDDDDK-OH), the remaining activity (as a rule, the signal under treatment as a percentage of the control signal) at 1 µM was determined as 58% in series [1]; 62% in series [2]; 62% in series [3]; 68% in series [4]; 73% in series [5]; 81% in [6]. Further, the remaining activity at 1 µM is 83% in series [7]; 84% in series [8]; 85% in series [9]; 96% in [10]; 99% in series [11]; 100% in series [12]. The remaining activity at 1 µM in series [13] was 110%; in [14], 130%.

These data come from patent US9176064B2, “Bisubstrate fluorescent probes for protein kinase CK2” (University of Tartu, priority 2012, dated 2015).
